Two molecules from paper PMC5234850 (Cell reports, 2017) can be followed below.

In experiment [1] the target is human Mre11 core (2-411aa), N-terminal his-tagged (human) (UniProt P49959). The experiment in a line: SEC. A general note: Size exclusion chromatography separates by hydrodynamic size, large species first.
Experiment [2] deals with T1, human Mre11 core (2-411aa), N-terminal his-tagged (human, UniProt P49959 2-411).
T1 sequence (looked up): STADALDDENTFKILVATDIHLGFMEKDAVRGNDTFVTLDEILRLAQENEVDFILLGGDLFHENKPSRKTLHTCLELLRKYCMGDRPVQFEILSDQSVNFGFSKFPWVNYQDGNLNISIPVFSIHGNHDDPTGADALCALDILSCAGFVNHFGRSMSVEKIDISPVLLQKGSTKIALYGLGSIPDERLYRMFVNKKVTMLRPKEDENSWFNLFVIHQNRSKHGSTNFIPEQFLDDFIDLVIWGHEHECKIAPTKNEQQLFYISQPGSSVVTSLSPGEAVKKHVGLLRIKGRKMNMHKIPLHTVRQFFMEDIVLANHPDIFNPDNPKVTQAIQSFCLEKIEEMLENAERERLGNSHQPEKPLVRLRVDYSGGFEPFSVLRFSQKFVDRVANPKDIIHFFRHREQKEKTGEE
The experiment in a line: SEC.

In the case of “human Mre11 core (2-411aa), N-terminal his-tagged (from UniProt P49959 2-411) (domain or fragment)”, the stoichiometry N (commonly a count of units in the complex or per binding partner) in experiment [1] was determined as 2.

B1: human Nbs1 F4 (622-729aa) fused to maltose binding protein (domain or fragment, UniProt O60934 622-729, looked up)
chain: KKRELKEDSLWSAKEISNNDKLQDDSEMLPKKLLLTEFRSLVIKNSTSRNPSGINDDYGQLKNFKKFKKVTYPGAGKLPHIIGGSDLIAHHARKNTELEEWLRQEMEV
In the case of B1, in experiment [2], the binding result is recorded as “binds”.
